Where two headings read alike, the source gives them in different places.
T1: cynomolgus 5T4 protein (cynomolgus monkey, UniProt Q4R8Y9 35-355, limits assumed)
T1 construct: Coated protein in ELISA; the screening step names a cyno 5T4-His protein; also called cyno 5T4; recombinant cyno 5T4-His protein
T1 sequence (looked up): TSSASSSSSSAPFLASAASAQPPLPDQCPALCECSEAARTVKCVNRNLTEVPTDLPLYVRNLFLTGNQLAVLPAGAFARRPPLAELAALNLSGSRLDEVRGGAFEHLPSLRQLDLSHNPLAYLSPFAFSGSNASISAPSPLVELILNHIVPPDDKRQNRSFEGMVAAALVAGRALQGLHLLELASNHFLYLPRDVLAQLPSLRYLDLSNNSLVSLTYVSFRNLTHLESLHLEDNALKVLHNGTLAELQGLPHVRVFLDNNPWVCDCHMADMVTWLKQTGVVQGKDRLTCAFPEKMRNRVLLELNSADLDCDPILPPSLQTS

T2: human 5T4-His protein (human, UniProt Q13641 32-355)
T2 construct: also called recombinant 5T4 protein (human 5T4-his tag); human 5T4 protein; not shown: His tag
T2 sequence (looked up): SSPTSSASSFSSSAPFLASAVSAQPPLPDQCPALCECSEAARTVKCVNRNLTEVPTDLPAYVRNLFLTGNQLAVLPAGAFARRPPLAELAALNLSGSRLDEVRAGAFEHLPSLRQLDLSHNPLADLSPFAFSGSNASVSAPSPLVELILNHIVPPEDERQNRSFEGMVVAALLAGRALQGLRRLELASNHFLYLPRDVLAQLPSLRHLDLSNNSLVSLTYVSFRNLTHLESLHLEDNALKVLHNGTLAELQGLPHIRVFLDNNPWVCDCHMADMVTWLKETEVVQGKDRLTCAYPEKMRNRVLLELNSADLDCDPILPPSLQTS


What was measured:
cynomolgus 5T4 protein = target: T1, cynomolgus 5T4 protein; experiment: ELISA, coated antigen
Protocol: (§1) ELISA testing was carried out to evaluate the binding of chimeric antibodies to human and cynomolgus, respectively. The antibody portion of naptumomab (NeoTX) that targets 5T4 (abbreviated as naptumomab in the present disclosure), was generated and used as a benchmark.
(§2) Briefly, microtiter plates were coated with human and cynomolgus 5T4 proteins at […] in PBS, 100 μl/well at 4° C. overnight, then blocked with 150 μl/well of 1% BSA. Serial dilutions of chimeric antibodies were added to each well and incubated for 1 hour at RT. The plates were washed with PBS/Tween and then incubate with mouse-anti-human IgG Fc antibody conjugated with Horse Radish Peroxidase (HRP) for 30 mins at RT. After washing, the plates were developed with TMB substrate and analyzed by spectrophotometer at OD 450 nm. All the 5T4 chimeric mAbs bound to human and cynomolgus 5T4 (FIG. 1-2 and Table 3).

human 5T4-His protein [1] = target: T2, human 5T4-His protein; experiment: ELISA, coated antigen
Protocol: as §1, §2

human 5T4-His protein [2] = target: T2, human 5T4-His protein; experiment: SPR Biacore, Protein A capture
Protocol: The binding of the chimeric mAbs from these clones against recombinant 5T4 protein (human 5T4-his tag) was tested with Biacore using a capture method. The mAbs were captured using Protein A chip. A serial dilution of human 5T4-his tag protein was injected over captured antibody for 2-3 mins at a flow rate of 30 μl/min. The antigen was allowed to dissociate for 360-1000 s. All the experiments were carried out on a Biacore T200. Data analysis was carried out using Biacore T200 evaluation software.

human 5T4-His protein [3] = target: T2, human 5T4-His protein; experiment: ELISA, coated 5T4-His
Protocol: To evaluate the binding activity of clones, the 286B4 chimeric antibody along with 286B4 humanized mAbs were subjected to ELISA test.
Briefly, microtiter plates were coated with human 5T4-His protein at 1 μg/ml in PBS, 100 μl/well at 4° C. overnight, then blocked with 150 μl/well of 1% BSA. 4-fold dilutions of tested antibodies starting from 20 nM were added to each well and incubated for 1 hour at 37° C. The plates were washed with PBS/Tween and then incubated with Goat Anti-Human IgG-HRP for 30 mins at 37° C. After washing, the plates were developed with TMB substrate and analyzed by spectrophotometer at OD 450 nm. As shown in FIG. 16 and Table 15, most of the humanized clones bound to human 5T4 with high potency.

human 5T4-His protein [4] = target: T2, human 5T4-His protein; experiment: SPR Biacore, Protein A capture; remark: listed apart in the source
Protocol: The binding of the 286B4 humanized antibodies to recombinant 5T4 protein (human 5T4-his tag) was tested with Biacore using a capture method. The mAbs were captured using Protein A chip. A serial dilution of human 5T4-his tag protein was injected over captured antibody for 3 mins at a flow rate of 30 μl/min. The antigen was allowed to dissociate for 280-800 s. All the experiments were carried out on a Biacore T200. Data analysis was carried out using the Biacore T200 evaluation software.

Binder	EC50 (cynomolgus 5T4 protein)	EC50 (human 5T4-His protein [1])	Kd (human 5T4-His protein [2])	koff (human 5T4-His protein [2])	kon (human 5T4-His protein [2])	EC50 (human 5T4-His protein [3])	Kd (human 5T4-His protein [4])	koff (human 5T4-His protein [4])	kon (human 5T4-His protein [4])
425G1 chimeric antibody (antibody, V domains shown, chimeric mAb) VH: EVQLQQSGAELVKPGASVKLSCTASGFNIKDTYMHWVKQRPEQGLEWIGRIDPANGHTIFASKFQGKATITADTSSNTAYMQLSSLTSGDTAVYYCGLFTMVVVPWYFDVWGTGTTVTVSS VL: DIVMTQSHKFMSTSVGDRVSITCKASQDVSTAVAWYQQKPGQSPKLLIYWASTRHTGVPDRFTGSGSGTDYTLTISSVQAEDLALYYCQQHYSSPLTFGAGTKLELK	0.23 nM	0.29 nM	1.64 nM	0.000215 s⁻¹	131000 M⁻¹ s⁻¹				
367B8 chimeric antibody (antibody, V domains shown, chimeric mAb) VH: QVQLQQPGTELVKPGASVKLSCKASGYTFTSYWMHWVKQRPEQGLEWIGNINPSNGNTNYNENFKSQATLTVDKSSSTAYMQLSSLTSEDSAVYYCARGGWDFDYWGQGTTLTVSS VL: QVVLTQSPAIMSASPGEKVTMTCSASSSVRYIHWYQQRSGTSPKRWIYDTSKLTSGVPVRFSGSGSGTSYSLTISSMEAEDAATYYCQQWTSKPPWTFGGGTKLEIR	0.13 nM	0.86 nM	0.285 nM	0.000167 s⁻¹	588000 M⁻¹ s⁻¹				
353H11 chimeric antibody (antibody, V domains shown, chimeric mAb) VH: QVQLQQPGTELVKPGASVKLSCKASDYTFTSYWMHWVKQRPEQGLEWIGNINPSNGNTNYNEKFKNKATLTVDKSSSTAYMQLSSLTFEDSAVYYCARGGWDFDYWGQGTTLTVSS VL: QVVLTQSPAIMSASPGEKVTMTCSASSSVRYMHWYQQRSGTSPKRWIYDTSKLTSGVPARFSGSGSGTSYSLTISSMEAEDAATYYCQLWTSKPPWTFGGGTKLEIR	0.13 nM	0.73 nM	0.24 nM	9.63e-05 s⁻¹	401000 M⁻¹ s⁻¹				
389G2 chimeric antibody (antibody, V domains shown, chimeric mAb) VH: QVQLQQPGTELVKPGASVKLSCKASGYTFTSYWMHWVKQRPEQGLEWIGNINPSNGNTNYNERFKSKATLTVDKSSSTAYMQLSSLTSEDSTVYYCARGGWDFDYWGQGTTLTVSS VL: QVVLTQSPAIMSASPGEKVTMTCSASSSVRYIHWYQQRSGTSPKRWIYDTSKLTSGVPVRFSGSGSGTSFSLTISSMEAEDAATYYCQQWTSKPPWTFGGGTKLEIK	0.19 nM	0.23 nM	0.49 nM	0.000138 s⁻¹	282000 M⁻¹ s⁻¹				
119G5 chimeric antibody (antibody, V domains shown, chimeric mAb) VH: QVQLQQSGPEVVKPGASVKISCKASGYTFTDYYMNWVKQSRGKSLEWIGDINPNNGGTNYNQKFKGKATLTVDKSSSTAYMELRSLTSEDSAVYYCAKEGPPGAMDYWGQGTSVTVSS VL: NIVMTQTPKFLLVSAGDRVTITCKASQSVSNHVAWYQQKPGQSPKLLIYYVSNRSIGVPDRFTGSGYGTDFTFTISTVQAEDLAVYFCQQVYSSPFTFGGGTRLEMK	0.2 nM	0.32 nM	1.22 nM	0.000159 s⁻¹	130000 M⁻¹ s⁻¹				
449H9 chimeric antibody (antibody, V domains shown, chimeric mAb) VH: QVQLQQSGAELVRPGSSVRISCKASGYAFSNYWMNWVKQRPGQGLEWIGQIYPGDGDTNYNGKFKNKATLTTDKSSSTAYMQLSSLTSEDSAVYFCARHYDYPYYYAMDYWGQGTSVTVSS VL: DIQMTQSPSSLSASLGERVSLTCRASQDIGIALTWLQQEPDGTIKRLIYATSSLDSGVPKRFSGSRSGSDYTLTISSLESEDFVDYYCLQYIISPYTFGGGTKLEIK	0.1 nM	0.37 nM	0.381 nM	0.000115 s⁻¹	301000 M⁻¹ s⁻¹				
109H7 chimeric antibody (antibody, V domains shown, chimeric mAb) VH: QVQLQQSGAELMKPGASVKLSCKATGYTFTGYWIEWVKQRPGQGLEWIGETLPGRGSTNYNEKFKGKATFTADTSSNIVYMQLSSLTIEDSAIYYCARGRRDFDYWGQGTTLTVSS VL: DIQMTQTTSSLSASLGDEVTISCSASQGINNYLNWYQQKPDGTVKLLIYYTSSLHSGVPSRFSGSGSGTDYSLTIINLEPEDIATYYCQQFSKLPFTFGSGTKLEIR	0.19 nM	0.31 nM	0.606 nM	0.000391 s⁻¹	645000 M⁻¹ s⁻¹				
Hu286B4-13 (antibody, V domains shown, humanized) VH: EVQLQESGPGLVKPSDTLSLTCAVSGYSISNNYYWNWIRQPPGKGLEWMGYITYDGSNNYNPSLKNRITVSRDTSKNQFSLKLSSVTAVDTAVYYCARGGGQLRFDYWGQGTTVTVSS VL: DIQMTQSPSSLSASVGDRVTITCKASQSVSNEVTWYQQKPGKAPKMLIYYASNRYTGVPDRFSGSGYGTDFTFTISSLQPEDIATYYCQQDYSSPWTFGGGTKVEIK						0.57 nM	1.12 nM	0.000107 s⁻¹	95500 M⁻¹ s⁻¹
Hu286B4-18 (antibody, V domains shown, humanized) VH: EVQLQESGPGLVKPSDTLSLTCAVSGYSITNNYYWNWIRQPPGKGLEWMGYITYDGSNNYNPSLKNRITVSRDTSKNQFSLKLSSVTAVDTAVYYCTRGGGQLRFDYWGQGTTVTVSS VL: DIQMTQSPSSLSASVGDRVTITCKASQSVSNEVTWYQQKPGKAPKMLIYYASNRYTGVPDRFSGSGYGTDFTFTISSLQPEDIATYYCQQDYSSPWTFGGGTKVEIK						0.42 nM	1.18 nM	0.000133 s⁻¹	113000 M⁻¹ s⁻¹
Hu286B4-15 (antibody, V domains shown, humanized) VH: EVQLQESGPGLVKPSDTLSLTCAVSGYSISNNYYWNWIRQPPGKGLEWMGYITYDGSNNYNPSLKNRITVSRDTSKNQFSLKLSSVTAVDTAVYYCARGGGQLRFDYWGQGTTVTVSS VL: SIVMTQSPSSLSASVGDRVTITCKASQSVSNEVTWYQQKPGKSPKMLIYYASNRYTGVPDRFSGSGYGTDFTFTISSLQPEDIATYFCQQDYSSPWTFGGGTKVEIK						0.25 nM	1.04 nM	0.000114 s⁻¹	110000 M⁻¹ s⁻¹
49C5 chimeric antibody (antibody, V domains shown, chimeric mAb) VH: EVQLQQSGPELVKPGASVKISCKASGYTFTDYYMNWVKQSHGKSLEWIGDINPYSGGATNNQKFKGKATLTVDKSSSTAYIELRSLTSEDSAVYFCARGSIYYDSTANYFDYWGQGTTLTVSS VL: DIQMTQSPASLSASVGETVTITCRASENIYSYLAWYQQKQGKSPQLLVYNAKSLTEGVPSRFSGSRSGTQFSLKINSLQPEDFGSYYCQHHYVTPWTFGGGTKLEIK	0.18 nM	0.6 nM	0.62 nM	0.000337 s⁻¹	544000 M⁻¹ s⁻¹				
493E10 chimeric antibody (antibody, V domains shown, chimeric mAb) VH: DVQLVESGGGLVQPGGSRKLSCAASGFTFSSFGMHWVRQAPEKGLEWVAYISSGSSTIYYADTVKGRFTISRDNPKNTLFLQMTSLRSEDTAMYYCARNRAYHREAMDYWGQGTSVTVSS VL: DIVLTQSPASLTVSLGQRATISCRASQSVSSSSYNYMHWYQQKPGQPPKLLIKSASNLESGVPARFSGSGSGTDFTLNIHPVEEEDTATYYCQHSWEIPYTFGGGTKLEIK	0.25 nM	0.28 nM	0.626 nM	0.000402 s⁻¹	642000 M⁻¹ s⁻¹				
